Several values for one entry are separate records, joined by “and”; a condition that tells them apart may be missing. Equal entries are not always repeated.
Assays:
[1] = target: T1, human OX40 on cells (human, UniProt P43489 29-277); experiment: cell-based or functional assay
T1 sequence (looked up): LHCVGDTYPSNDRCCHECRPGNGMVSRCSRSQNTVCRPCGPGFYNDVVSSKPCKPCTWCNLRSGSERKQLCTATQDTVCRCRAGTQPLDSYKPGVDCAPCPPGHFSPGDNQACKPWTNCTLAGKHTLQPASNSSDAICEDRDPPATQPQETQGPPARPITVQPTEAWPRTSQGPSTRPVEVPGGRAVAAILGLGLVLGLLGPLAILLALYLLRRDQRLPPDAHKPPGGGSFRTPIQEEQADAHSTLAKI

[2] = target: T2, human OX40 protein (human, UniProt P43489 29-214, limits assumed); experiment: ELISA as in Example 3, human OX40 protein coated
T2 construct: also called human OX antigen protein
T2 sequence (looked up): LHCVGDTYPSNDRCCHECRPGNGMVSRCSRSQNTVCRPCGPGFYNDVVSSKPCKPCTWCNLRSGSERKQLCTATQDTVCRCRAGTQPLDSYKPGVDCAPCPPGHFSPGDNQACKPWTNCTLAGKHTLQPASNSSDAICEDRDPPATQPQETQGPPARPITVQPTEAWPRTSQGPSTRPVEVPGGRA
Protocol: (§1) The next day, it was washed three times with 300 μL PBST (Tween 20: 0.5‰), then blocked with 5% BSA/PBS at 100 μL/well for 2 hours, and shaken at room temperature. After washing 3 times with 300 μL PBST, the gradient dilutions of samples were prepared with PBS, which were added into the 96-well plate at 100 μL/well and shaken at room temperature for 1 hour, and washed 3 times with 300 μL PBST. The secondary antibody goat anti-human IgG HRP solution was prepared, which was added into the 96-well plate at 100 μL/well, and shaken at room temperature for 1 hour. After washing 4 times with 300 μL PBST, TMB was added at 100 μL/well and developed for 20 min. 0.6N H₂SO4 was added at 100 μL/well to stop the development, and OD450 nm was measured.
The in vitro binding assay of humanized antibodies and human OX antigen protein was carried out as described in Example 3.

[3] = target: T1, human OX40 on cells; experiment: FACS on CHO-hOX40 cells
Protocol: The OX40 antibody gradient was created with PBS, and a stock solution of 10× final concentration was prepared. CHO-hOX40 cells were collected, washed once with PBS, counted, and diluted to a cell suspension of 2×10⁶ cells/ml. 10 μl of OX40 antibody stock solutions were added into 100 μl of cell suspension, and incubated at 4° C. in the dark for 30 min. After washing twice with PBS, a secondary antibody was added and an incubation was carried out at 4° C. for 30 min in the dark. After washing once with PBS, the cells were suspended in 400 μl FACS buffer and measured on the instrument.

[4] = target: T2, human OX40 protein; experiment: ELISA, protein coated at 1 µg/mL, goat anti-human IgG HRP
Protocol: as §1

[5] = target: T3, mouse OX40 on CHO cells (mouse, UniProt P47741 20-272); experiment: FACS on CHO cells expressing mouse OX40
T3 construct: whole, on cells; also called CHO-mOX40
T3 sequence (looked up): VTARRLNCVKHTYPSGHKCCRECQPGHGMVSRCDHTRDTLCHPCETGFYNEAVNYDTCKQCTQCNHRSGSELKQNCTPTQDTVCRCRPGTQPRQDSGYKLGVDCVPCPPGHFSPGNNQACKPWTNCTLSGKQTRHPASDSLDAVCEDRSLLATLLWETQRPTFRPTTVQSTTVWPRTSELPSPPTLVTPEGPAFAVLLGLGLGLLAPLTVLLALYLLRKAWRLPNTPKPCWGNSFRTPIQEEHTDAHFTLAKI

B1: MT01-L1(M1) (antibody, human IgG1, kappa, V domains shown)
VH: EVQLQQSGPELVKPGASVKMSCKASGYTFTSYVMHWLKQKPGQGLEWIGYINPYNDATKYNEKFKGKAKLTSDKSSSTAYMELSSLTSEDSAVYYCANYYGSKFAMDYWGQGTSVTVSS
VL: DIQMTQTTSSLSASLGDRVTISCRASQDISNYLSWYQRKPDGAVKLLIYYTSRLHSGVPSRFSGSGSGADYSLTISNLEQEDIATYFCQQGITLPWTFGGGTKLEIKR
[1]
  EC50 for activation of the NFκB-luciferase reporter gene: 0.0645 µg/mL

B2: MT01-L1(M1/M2) (antibody, human IgG1, kappa, V domains shown)
VH: EVQLQQSGPELVKPGASVKMSCKASGYTFTSYVMHWLKQKPGQGLEWIGYINPYNDATKYNEKFKGKAKLTSDKSSSTAYMELSSLTSEDSAVYYCANYYGSKFAMDYWGQGTSVTVSS
VL: DIQMTQTTSSLSASLGDRVTISCRASQDISNYLSWYQRKPDGAVKLLIYYTSRLHSGVPSRFSGSGSGADYSLTISNLEQEDIATYFCQQGITLPFTFGGGTKLEIKR
[1]
  EC50 for activation of the NFκB-luciferase reporter gene: 0.128 µg/mL

B3: MT01-L1(M2) (antibody, human IgG1, kappa, V domains shown)
VH: EVQLQQSGPELVKPGASVKMSCKASGYTFTSYVMHWLKQKPGQGLEWIGYINPYNDGTKYNEKFKGKAKLTSDKSSSTAYMELSSLTSEDSAVYYCANYYGSKFAMDYWGQGTSVTVSS
VL: DIQMTQTTSSLSASLGDRVTISCRASQDISNYLSWYQRKPDGAVKLLIYYTSRLHSGVPSRFSGSGSGADYSLTISNLEQEDIATYFCQQGITLPFTFGGGTKLEIKR
[1]
  EC50 for activation of the NFκB-luciferase reporter gene: 0.06 µg/mL

B4: MT01-C1 (antibody, human IgG1, kappa)
heavy: not shown
light: DIQMTQSPSSVSASVGDRVTITCRASQDISNYLSWYQQKPGGAVKLLIYYTSRLHSGVPSRFSGSGSGTDYTLTISSLQPEDFATYFCQQGITLPWTFGQGTKVEIKRTVAAPSVFIFPPSDEQLKSGTASVVCLLNNFYPREAKVQWKVDNALQSGNSQESVTEQDSKDSTYSLSSTLTLSKADYEKHKVYACEVTHQGLSSPVTKSFNRGEC
notes: also called humanized monoclonal antibody MT01-C1
[1]
  EC50 of activation on a cell line transfected stably by Jurkat-OX40-NFκB-luciferase reporter: 0.028 µg/mL
[2]
  EC50: 0.345 µg/mL

B5: MT01-C1(G2) (antibody, human IgG2, kappa)
heavy: EVQLVQSGAEVKKPGESLKISCKASGYTFTSYVMHWLRQMPGKGLEWMGYINPYNDGTKYNEKFKGQVTISSDKSISTAYLQWSSLKASDTAMYYCANYYGSKFAMDYWGQGTMVTVSSASTKGPSVFPLAPCSRSTSESTAALGCLVKDYFPEPVTVSWNSGALTSGVHTFPAVLQSSGLYSLSSVVTVPSSNFGTQTYTCNVDHKPSNTKVDKTVERKCCVECPPCPAPPVAGPSVFLFPPKPKDTLMISRTPEVTCVVVDVSHEDPEVQFNWYVDGVEVHNAKTKPREEQFNSTFRVVSVLTVVHQDWLNGKEYKCKVSNKGLPAPIEKTISKTKGQPREPQVYTLPPSREEMTKNQVSLTCLVKGFYPSDIAVEWESNGQPENNYKTTPPMLDSDGSFFLYSKLTVDKSRWQQGNVFSCSVMHEALHNHYTQKSLSLSPGK
light: DIQMTQSPSSVSASVGDRVTITCRASQDISNYLSWYQQKPGGAVKLLIYYTSRLHSGVPSRFSGSGSGTDYTLTISSLQPEDFATYFCQQGITLPWTFGQGTKVEIKRTVAAPSVFIFPPSDEQLKSGTASVVCLLNNFYPREAKVQWKVDNALQSGNSQESVTEQDSKDSTYSLSSTLTLSKADYEKHKVYACEVTHQGLSSPVTKSFNRGEC
[1]
  EC50 of activation on a cell line transfected stably by Jurkat-OX40-NFκB-luciferase reporter: 0.0434 µg/mL
[2]
  EC50: 0.39 µg/mL

B6: MT01-L1 (antibody, human IgG1, kappa)
heavy: not shown
light: DIQMTQTTSSLSASLGDRVTISCRASQDISNYLSWYQRKPDGAVKLLIYYTSRLHSGVPSRFSGSGSGADYSLTISNLEQEDIATYFCQQGITLPWTFGGGTKLEIKRTVAAPSVFIFPPSDEQLKSGTASVVCLLNNFYPREAKVQWKVDNALQSGNSQESVTEQDSKDSTYSLSSTLTLSKADYEKHKVYACEVTHQGLSSPVTKSFNRGEC
notes: also called human-mouse chimeric monoclonal antibody MT01-L1
[3]
  EC50: 1.22 µg/mL
[4]
  EC50: 0.291 µg/mL
[1]
  EC50 for activation of the NFκB-luciferase reporter gene: 0.0391 µg/mL and 0.0574 µg/mL
  IC50 of inhibition of the OX40L-induced activation of NFkB signaling pathway in Jurkat cells: 0.686 µg/mL
[5]
  binding result: no binding

B7: MT01-L1(G2) (antibody, human IgG2, kappa)
heavy: EVQLQQSGPELVKPGASVKMSCKASGYTFTSYVMHWLKQKPGQGLEWIGYINPYNDGTKYNEKFKGKAKLTSDKSSSTAYMELSSLTSEDSAVYYCANYYGSKFAMDYWGQGTSVTVSSASTKGPSVFPLAPCSRSTSESTAALGCLVKDYFPEPVTVSWNSGALTSGVHTFPAVLQSSGLYSLSSVVTVPSSNFGTQTYTCNVDHKPSNTKVDKTVERKCCVECPPCPAPPVAGPSVFLFPPKPKDTLMISRTPEVTCVVVDVSHEDPEVQFNWYVDGVEVHNAKTKPREEQFNSTFRVVSVLTVVHQDWLNGKEYKCKVSNKGLPAPIEKTISKTKGQPREPQVYTLPPSREEMTKNQVSLTCLVKGFYPSDIAVEWESNGQPENNYKTTPPMLDSDGSFFLYSKLTVDKSRWQQGNVFSCSVMHEALHNHYTQKSLSLSPGK
light: DIQMTQTTSSLSASLGDRVTISCRASQDISNYLSWYQRKPDGAVKLLIYYTSRLHSGVPSRFSGSGSGADYSLTISNLEQEDIATYFCQQGITLPWTFGGGTKLEIKRTVAAPSVFIFPPSDEQLKSGTASVVCLLNNFYPREAKVQWKVDNALQSGNSQESVTEQDSKDSTYSLSSTLTLSKADYEKHKVYACEVTHQGLSSPVTKSFNRGEC
[1]
  EC50 for activation of the NFκB-luciferase reporter gene: 0.0149 µg/mL

B8: MT01-L2 (antibody, human IgG1, lambda)
heavy: not shown
light: QLVLTQSSSASFSLGASAKLTCTLSSQHSTYIIEWYQQQPLKPPKYVMELKKDGSHSTGEGIPDRFSGSSSGADRYLSISNIQPEDEAIYICGVGNTIKEQFVYVFGGGTKVTVLGQPKANPTVTLFPPSSEELQANKATLVCLISDFYPGAVTVAWKADGSPVKAGVETTKPSKQSNNKYAASSYLSLTPEQWKSHRSYSCQVTHEGSTVEKTVAPTECS
notes: also called human-mouse chimeric monoclonal antibody MT01-L2
[3]
  EC50: 2.42 µg/mL
[4]
  EC50: 0.208 µg/mL
[1]
  EC50 for activation of the NFκB-luciferase reporter gene: 0.0841 µg/mL
  IC50 of inhibition of the OX40L-induced activation of NFkB signaling pathway in Jurkat cells: 1.59 µg/mL
[5]
  binding result: no binding

B9: MT01-L2(G2) (antibody, human IgG2, lambda)
heavy: EVQLVESGGGLVQPKGSLSLSCAASGFTFNTYAMNWVRQAPGKGLEWVARIRSKSNNYATYYADSVKDRFTISRDDSQSMLYLQMTNLKTEDTAMYHCVRSLGRAFVYWGQGTLVTVSSASTKGPSVFPLAPCSRSTSESTAALGCLVKDYFPEPVTVSWNSGALTSGVHTFPAVLQSSGLYSLSSVVTVPSSNFGTQTYTCNVDHKPSNTKVDKTVERKCCVECPPCPAPPVAGPSVFLFPPKPKDTLMISRTPEVTCVVVDVSHEDPEVQFNWYVDGVEVHNAKTKPREEQFNSTFRVVSVLTVVHQDWLNGKEYKCKVSNKGLPAPIEKTISKTKGQPREPQVYTLPPSREEMTKNQVSLTCLVKGFYPSDIAVEWESNGQPENNYKTTPPMLDSDGSFFLYSKLTVDKSRWQQGNVFSCSVMHEALHNHYTQKSLSLSPGK
light: QLVLTQSSSASFSLGASAKLTCTLSSQHSTYIIEWYQQQPLKPPKYVMELKKDGSHSTGEGIPDRFSGSSSGADRYLSISNIQPEDEAIYICGVGNTIKEQFVYVFGGGTKVTVLGQPKANPTVTLFPPSSEELQANKATLVCLISDFYPGAVTVAWKADGSPVKAGVETTKPSKQSNNKYAASSYLSLTPEQWKSHRSYSCQVTHEGSTVEKTVAPTECS
[1]
  EC50 for activation of the NFκB-luciferase reporter gene: 0.118 µg/mL
